Test results: the supplement of paper PMC10065799, “High-throughput profiling of sequence recognition by tyrosine kinases and SH2 domains using bacterial peptide display” (eLife, 2023)
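Throughout, for SH2 binding enrichment of the phosphorylated peptide, bacterial display: peptide library displayed on the E. coli surface as eCPX fusions, selected cells deep-sequenced, score is each peptide's frequency after selection divided by its frequency in the input.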
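Throughout, for phosphorylation enrichment, bacterial display: 11-residue human phosphosite peptides and single-mutation variants displayed on the E. coli surface, counted by deep sequencing, each peptide's frequency after selection divided by its frequency in the unselected input library; frequency after pTyr selection over input frequency; kinase dosed for 20-30% of maximal phosphorylation in three min.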

The sequences below were run on c-Src (assay: phosphorylation enrichment, bacterial display (enrichment ratio); higher = better substrate or ligand; peptides without Tyr show the background).
AFGGGYGGVLT [KRT19_Y65_YF] gave a phosphorylation enrichment of 0.38. In the case of GLETSYIEDNC [PAH_Y24_Q20L], the phosphorylation enrichment is reported as 0.513. Sequence RELGEYGLQAF [ALDH2_Y497_YF] has a phosphorylation enrichment of 0.704. In the case of TPIFPYLLPKS [PLD2_Y580_T577I_YF], the phosphorylation enrichment is reported as 0.489. RLPNGYGLAYR [DLK1_Y262_S260N] showed a phosphorylation enrichment of 0.423. EDSEFYRAFEE [CASQ2_Y179_K180R_YF] gave a phosphorylation enrichment of 0.494. In the case of QADVVYVNTQL [MERTK_Y872_I871V], the phosphorylation enrichment is reported as 0.738. In the case of PDGVEYLKNDP [GRIN3A_Y831], the phosphorylation enrichment is reported as 0.496. Sequence FSPPFYHRNCM [HGD_Y334_R330S_YF] has a phosphorylation enrichment of 0.623. Work on KKEGPYDVVVL [PARK7_Y67] yielded a phosphorylation enrichment of 1.33. With KVKSIYFHTQG [AR_Y916_P914S] the phosphorylation enrichment was 0.436. With GANFEYIIAEK [ECHS1_Y35] the phosphorylation enrichment was 0.48. For AELVQYYMEHH [PTPN11_Y80], the phosphorylation enrichment was 0.845. Work on FADGVYQALEE [DUOX2_Y70_YF] yielded a phosphorylation enrichment of 3.81. Sequence FRSSLYSLMET [MYO5C_Y633_L634S] has a phosphorylation enrichment of 4.03. FFCRWYRNRKS [EREG_Y144_YF] gave a phosphorylation enrichment of 0.51. Sequence VIEYSYTSADG [DHCR7_Y382_C380Y] has a phosphorylation enrichment of 0.536. For SSTAMYSAAGR [PSMB1_Y8_P11A], the phosphorylation enrichment was 0.424. Work on LNPVVYTLRNA [OR4C12_Y285] yielded a phosphorylation enrichment of 1.92. DLVSEYQQFQD [TUBB3_Y422_YF] was tested, and the phosphorylation enrichment was 0.657. AGHEEYSAMRD [KRAS_Y64_Q61H] was tested, and the phosphorylation enrichment was 0.558. IRFSDYVEVAD [PHACTR1_Y525] was tested, and the phosphorylation enrichment was 0.448. For SDQRRYSLIDR [CLIP2_Y972], the phosphorylation enrichment was 0.358. MSRNLYSGDFF [DDR2_Y736_YF] gave a phosphorylation enrichment of 4.14. RYFTTYDTNGR [CLCA1_Y665] showed a phosphorylation enrichment of 0.774. For SQGRQYQELPR [KCNH2_Y1009_R1005Q], the phosphorylation enrichment was 0.423. LRRFIYRPPDR [OTOF_Y1231] showed a phosphorylation enrichment of 0.954. With TEALFYTDDPA [ADPRS_Y75_T79P_YF] the phosphorylation enrichment was 0.797. CTTIHHNYMCN [TP53_Y234_Y234H] gave a phosphorylation enrichment of 0.432. NLVSEYQQYQD [TUBB3_Y422_D417N] was tested, and the phosphorylation enrichment was 0.541. In the case of RVILRYVNPGT [LAMA3_Y791], the phosphorylation enrichment is reported as 0.448. PQDSAYHSGIQ [FLG_Y3940_S3935P] showed a phosphorylation enrichment of 0.553. KLPDAYERFIL [G6PD_Y437_L440F] was tested, and the phosphorylation enrichment was 0.713.

The sequences below were run against Grb2 SH2 (UniProt P62993) (assay: SH2 binding enrichment of the phosphorylated peptide, bacterial display (enrichment ratio); higher = better substrate or ligand; peptides without Tyr show the background).
Chain of Grb2 SH2 (P62993 whole entry, looked up): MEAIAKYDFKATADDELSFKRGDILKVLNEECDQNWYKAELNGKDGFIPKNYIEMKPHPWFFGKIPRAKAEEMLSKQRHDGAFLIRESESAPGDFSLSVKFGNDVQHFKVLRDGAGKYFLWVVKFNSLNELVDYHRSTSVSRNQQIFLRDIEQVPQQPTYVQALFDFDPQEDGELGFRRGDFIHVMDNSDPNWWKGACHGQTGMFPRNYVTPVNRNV
Work on AFGGGYGGVLT [KRT19_Y65_YF] yielded an SH2 binding enrichment of 0.784. For GLETSYIEDNC [PAH_Y24_Q20L], the SH2 binding enrichment was 0.726. RELGEYGLQAF [ALDH2_Y497_YF] gave an SH2 binding enrichment of 1.15. TPIFPYLLPKS [PLD2_Y580_T577I_YF] gave an SH2 binding enrichment of 0.877. Sequence RLPNGYGLAYR [DLK1_Y262_S260N] has an SH2 binding enrichment of 1.15. In the case of EDSEFYRAFEE [CASQ2_Y179_K180R_YF], the SH2 binding enrichment is reported as 0.963. QADVVYVNTQL [MERTK_Y872_I871V] showed an SH2 binding enrichment of 4.29. For PDGVEYLKNDP [GRIN3A_Y831], the SH2 binding enrichment was 0.929. Work on FSPPFYHRNCM [HGD_Y334_R330S_YF] yielded an SH2 binding enrichment of 0.981. For KKEGPYDVVVL [PARK7_Y67], the SH2 binding enrichment was 0.801. Work on KVKSIYFHTQG [AR_Y916_P914S] yielded an SH2 binding enrichment of 0.641. With GANFEYIIAEK [ECHS1_Y35] the SH2 binding enrichment was 0.576. Work on AELVQYYMEHH [PTPN11_Y80] yielded an SH2 binding enrichment of 0.688. Work on FADGVYQALEE [DUOX2_Y70_YF] yielded an SH2 binding enrichment of 1.15. In the case of FRSSLYSLMET [MYO5C_Y633_L634S], the SH2 binding enrichment is reported as 0.672. FFCRWYRNRKS [EREG_Y144_YF] showed an SH2 binding enrichment of 0.705. VIEYSYTSADG [DHCR7_Y382_C380Y] showed an SH2 binding enrichment of 0.927. With SSTAMYSAAGR [PSMB1_Y8_P11A] the SH2 binding enrichment was 0.897. LNPVVYTLRNA [OR4C12_Y285] showed an SH2 binding enrichment of 0.77. DLVSEYQQFQD [TUBB3_Y422_YF] gave an SH2 binding enrichment of 0.918. Sequence AGHEEYSAMRD [KRAS_Y64_Q61H] has an SH2 binding enrichment of 0.777. In the case of IRFSDYVEVAD [PHACTR1_Y525], the SH2 binding enrichment is reported as 1.01. Sequence SDQRRYSLIDR [CLIP2_Y972] has an SH2 binding enrichment of 0.833. MSRNLYSGDFF [DDR2_Y736_YF] showed an SH2 binding enrichment of 0.83. RYFTTYDTNGR [CLCA1_Y665] gave an SH2 binding enrichment of 0.777. With SQGRQYQELPR [KCNH2_Y1009_R1005Q] the SH2 binding enrichment was 0.82. For LRRFIYRPPDR [OTOF_Y1231], the SH2 binding enrichment was 0.538. TEALFYTDDPA [ADPRS_Y75_T79P_YF] was tested, and the SH2 binding enrichment was 0.636. In the case of CTTIHHNYMCN [TP53_Y234_Y234H], the SH2 binding enrichment is reported as 1.01. With NLVSEYQQYQD [TUBB3_Y422_D417N] the SH2 binding enrichment was 0.831. Sequence RVILRYVNPGT [LAMA3_Y791] has an SH2 binding enrichment of 1.44. With PQDSAYHSGIQ [FLG_Y3940_S3935P] the SH2 binding enrichment was 0.787. For KLPDAYERFIL [G6PD_Y437_L440F], the SH2 binding enrichment was 0.933.

These sequences were tested against SHP2-C SH2 in the same assay as above.
AFGGGYGGVLT [KRT19_Y65_YF] was tested, and the SH2 binding enrichment was 0.719. With GLETSYIEDNC [PAH_Y24_Q20L] the SH2 binding enrichment was 0.617. With RELGEYGLQAF [ALDH2_Y497_YF] the SH2 binding enrichment was 1.04. In the case of TPIFPYLLPKS [PLD2_Y580_T577I_YF], the SH2 binding enrichment is reported as 0.451. Work on RLPNGYGLAYR [DLK1_Y262_S260N] yielded an SH2 binding enrichment of 0.55. EDSEFYRAFEE [CASQ2_Y179_K180R_YF] gave an SH2 binding enrichment of 0.682. For QADVVYVNTQL [MERTK_Y872_I871V], the SH2 binding enrichment was 1.43. PDGVEYLKNDP [GRIN3A_Y831] showed an SH2 binding enrichment of 0.479. FSPPFYHRNCM [HGD_Y334_R330S_YF] was tested, and the SH2 binding enrichment was 0.818. Work on KKEGPYDVVVL [PARK7_Y67] yielded an SH2 binding enrichment of 0.629. KVKSIYFHTQG [AR_Y916_P914S] showed an SH2 binding enrichment of 0.793. GANFEYIIAEK [ECHS1_Y35] was tested, and the SH2 binding enrichment was 0.547. With AELVQYYMEHH [PTPN11_Y80] the SH2 binding enrichment was 1.13. FADGVYQALEE [DUOX2_Y70_YF] was tested, and the SH2 binding enrichment was 0.882. FRSSLYSLMET [MYO5C_Y633_L634S] was tested, and the SH2 binding enrichment was 0.564. Work on FFCRWYRNRKS [EREG_Y144_YF] yielded an SH2 binding enrichment of 0.858. Work on VIEYSYTSADG [DHCR7_Y382_C380Y] yielded an SH2 binding enrichment of 3.63. Sequence SSTAMYSAAGR [PSMB1_Y8_P11A] has an SH2 binding enrichment of 0.609. LNPVVYTLRNA [OR4C12_Y285] showed an SH2 binding enrichment of 1.37. In the case of DLVSEYQQFQD [TUBB3_Y422_YF], the SH2 binding enrichment is reported as 0.687. Sequence AGHEEYSAMRD [KRAS_Y64_Q61H] has an SH2 binding enrichment of 0.713. Sequence IRFSDYVEVAD [PHACTR1_Y525] has an SH2 binding enrichment of 0.838. Work on SDQRRYSLIDR [CLIP2_Y972] yielded an SH2 binding enrichment of 0.861. Work on MSRNLYSGDFF [DDR2_Y736_YF] yielded an SH2 binding enrichment of 0.611. RYFTTYDTNGR [CLCA1_Y665] was tested, and the SH2 binding enrichment was 1.24. For SQGRQYQELPR [KCNH2_Y1009_R1005Q], the SH2 binding enrichment was 0.545. In the case of LRRFIYRPPDR [OTOF_Y1231], the SH2 binding enrichment is reported as 0.504. In the case of TEALFYTDDPA [ADPRS_Y75_T79P_YF], the SH2 binding enrichment is reported as 0.397. Work on CTTIHHNYMCN [TP53_Y234_Y234H] yielded an SH2 binding enrichment of 1.03. With NLVSEYQQYQD [TUBB3_Y422_D417N] the SH2 binding enrichment was 0.698. RVILRYVNPGT [LAMA3_Y791] showed an SH2 binding enrichment of 0.632. For PQDSAYHSGIQ [FLG_Y3940_S3935P], the SH2 binding enrichment was 0.613. Work on KLPDAYERFIL [G6PD_Y437_L440F] yielded an SH2 binding enrichment of 0.801.

What follows are sequences tested against c-Src SH2 in the same assay as above.
Work on AFGGGYGGVLT [KRT19_Y65_YF] yielded an SH2 binding enrichment of 0.455. GLETSYIEDNC [PAH_Y24_Q20L] was tested, and the SH2 binding enrichment was 0.539. In the case of RELGEYGLQAF [ALDH2_Y497_YF], the SH2 binding enrichment is reported as 0.758. With TPIFPYLLPKS [PLD2_Y580_T577I_YF] the SH2 binding enrichment was 0.393. With RLPNGYGLAYR [DLK1_Y262_S260N] the SH2 binding enrichment was 0.656. Sequence EDSEFYRAFEE [CASQ2_Y179_K180R_YF] has an SH2 binding enrichment of 0.751. QADVVYVNTQL [MERTK_Y872_I871V] was tested, and the SH2 binding enrichment was 0.718. In the case of PDGVEYLKNDP [GRIN3A_Y831], the SH2 binding enrichment is reported as 0.578. Work on FSPPFYHRNCM [HGD_Y334_R330S_YF] yielded an SH2 binding enrichment of 0.633. Sequence KKEGPYDVVVL [PARK7_Y67] has an SH2 binding enrichment of 0.827. KVKSIYFHTQG [AR_Y916_P914S] gave an SH2 binding enrichment of 0.568. In the case of GANFEYIIAEK [ECHS1_Y35], the SH2 binding enrichment is reported as 0.447. In the case of AELVQYYMEHH [PTPN11_Y80], the SH2 binding enrichment is reported as 0.683. Work on FADGVYQALEE [DUOX2_Y70_YF] yielded an SH2 binding enrichment of 0.75. Sequence FRSSLYSLMET [MYO5C_Y633_L634S] has an SH2 binding enrichment of 1.24. FFCRWYRNRKS [EREG_Y144_YF] showed an SH2 binding enrichment of 0.516. With VIEYSYTSADG [DHCR7_Y382_C380Y] the SH2 binding enrichment was 6.21. For SSTAMYSAAGR [PSMB1_Y8_P11A], the SH2 binding enrichment was 0.774. Work on LNPVVYTLRNA [OR4C12_Y285] yielded an SH2 binding enrichment of 0.629. DLVSEYQQFQD [TUBB3_Y422_YF] was tested, and the SH2 binding enrichment was 0.598. AGHEEYSAMRD [KRAS_Y64_Q61H] was tested, and the SH2 binding enrichment was 0.512. For IRFSDYVEVAD [PHACTR1_Y525], the SH2 binding enrichment was 0.58. For SDQRRYSLIDR [CLIP2_Y972], the SH2 binding enrichment was 3.35. For MSRNLYSGDFF [DDR2_Y736_YF], the SH2 binding enrichment was 0.773. RYFTTYDTNGR [CLCA1_Y665] showed an SH2 binding enrichment of 0.556. For SQGRQYQELPR [KCNH2_Y1009_R1005Q], the SH2 binding enrichment was 1.41. LRRFIYRPPDR [OTOF_Y1231] gave an SH2 binding enrichment of 0.725. With TEALFYTDDPA [ADPRS_Y75_T79P_YF] the SH2 binding enrichment was 0.626. In the case of CTTIHHNYMCN [TP53_Y234_Y234H], the SH2 binding enrichment is reported as 1.23. With NLVSEYQQYQD [TUBB3_Y422_D417N] the SH2 binding enrichment was 0.673. For RVILRYVNPGT [LAMA3_Y791], the SH2 binding enrichment was 0.717. PQDSAYHSGIQ [FLG_Y3940_S3935P] was tested, and the SH2 binding enrichment was 0.437. For KLPDAYERFIL [G6PD_Y437_L440F], the SH2 binding enrichment was 1.1.
